Laboratory results reported in patent publication US20240261333A1 (published 2024).

Key:
Test in all cases: co-IP, anti-FLAG, N-FLAG B3GNT2 cell lysate, mass spectrometry
[1] = target: T1, EIF4G1 (UniProt Q04637-3 1-1559, limits assumed)
T1 construct: also called NP_001278086.1
Experimental: (§1) Cells were plated in 10-cm cell culture dishes and grown to 60-80% confluency. For each condition, two biological replicates were harvested for co-IP. Cells were washed with PBS and 4 mL of lysis buffer (20 mM HEPES, 1% Triton X-100, 150 mM NaCl, 1 mM EDTA, and 10% glycerol) containing protease inhibitor cocktail was added. Cells were scraped and lysate was incubated at 4° C. under rotary agitation for 1 h. Lysate was centrifuged at 14,000×g for 10 min at 4° C. Supernatant was transferred to a new tube and an aliquot was taken as the input. […] For Western blots, 10 μg/mL Chicken Anti-FLAG (Aves labs ET-DY100) and IgY control (R&D Systems AB-101-C) antibodies were biotinylated (Thermo Fisher Scientific 90407) and added to the respective conditions. Lysates with antibodies were incubated at 4° C. under rotary agitation overnight. For each mL of lysate, 50 μL of Pierce Protein A/G Magnetic Beads (Mass spectrometry; Thermo Fisher Scientific 88803) or Pierce Streptavidin Magnetic Beads (Western blot; Thermo Fisher Scientific 88817) was washed twice with lysis buffer. Lysates with antibodies were added to the beads and incubated at 4° C. under rotary agitation for 4 h. Beads were washed with lysis buffer 3 times and resuspended in lysis buffer for storage.
(§2) Magnetic beads were resuspended in 100 mM Tris pH 7.8, reduced, alkylated and digested with trypsin at 37° ° C. overnight. This solution was subjected to solid phase extraction to concentrate the peptides and remove unwanted reagents followed by injection onto a Shimadzu HPLC with fraction collector. Eight fractions were collected and after concentration were injected on a Waters NanoAcquity HPLC equipped with a self-packed Aeris 3 μm C18 analytical column 0.075 mm by 20 cm, (Phenomenex). Peptides were eluted using standard reverse-phase gradients. The effluent from the column was analyzed using a Thermo Orbitrap Elite mass spectrometer (nanospray configuration) operated in a data dependent manner for 54 minutes. The resulting fragmentation spectra were correlated against the known database using Proteome Discover 1.4 (Thermo Fisher Scientific).

[2] = target: RPL5 (UniProt P46777 2-297)
Experimental: as §1, §2

[3] = target: RPS2 (UniProt P15880 2-293)
Experimental: as §1, §2

[4] = target: T2, CFL1 (UniProt P23528 2-166)
T2 construct: also called NP_005498.1
T2 sequence (P23528 2-166 limits assumed): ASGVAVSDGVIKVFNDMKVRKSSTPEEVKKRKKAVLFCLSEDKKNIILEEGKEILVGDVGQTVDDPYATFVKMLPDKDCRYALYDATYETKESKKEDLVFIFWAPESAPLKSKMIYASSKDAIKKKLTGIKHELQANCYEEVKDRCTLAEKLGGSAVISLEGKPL
Experimental: as §1, §2

[5] = target: T3, ARG1 (UniProt P05089 1-322)
T3 construct: also called NP_000036.2 (+1)
T3 sequence (looked up): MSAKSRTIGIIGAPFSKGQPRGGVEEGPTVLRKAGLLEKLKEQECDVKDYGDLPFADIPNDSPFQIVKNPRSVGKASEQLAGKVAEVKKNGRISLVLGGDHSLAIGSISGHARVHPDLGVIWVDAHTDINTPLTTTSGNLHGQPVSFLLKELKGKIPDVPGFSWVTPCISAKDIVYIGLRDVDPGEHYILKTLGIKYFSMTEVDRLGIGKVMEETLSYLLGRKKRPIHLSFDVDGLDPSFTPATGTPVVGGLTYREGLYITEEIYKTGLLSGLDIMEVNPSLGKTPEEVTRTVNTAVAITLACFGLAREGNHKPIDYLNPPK
Experimental: as §1, §2

[6] = target: T4, LIMA1 (UniProt Q9UHB6-4 1-760, limits assumed)
T4 construct: also called NP_001107018.1 (+1)
T4 sequence (Q9UHB6 other isoform, or with tags, fused parts or gaps limits assumed): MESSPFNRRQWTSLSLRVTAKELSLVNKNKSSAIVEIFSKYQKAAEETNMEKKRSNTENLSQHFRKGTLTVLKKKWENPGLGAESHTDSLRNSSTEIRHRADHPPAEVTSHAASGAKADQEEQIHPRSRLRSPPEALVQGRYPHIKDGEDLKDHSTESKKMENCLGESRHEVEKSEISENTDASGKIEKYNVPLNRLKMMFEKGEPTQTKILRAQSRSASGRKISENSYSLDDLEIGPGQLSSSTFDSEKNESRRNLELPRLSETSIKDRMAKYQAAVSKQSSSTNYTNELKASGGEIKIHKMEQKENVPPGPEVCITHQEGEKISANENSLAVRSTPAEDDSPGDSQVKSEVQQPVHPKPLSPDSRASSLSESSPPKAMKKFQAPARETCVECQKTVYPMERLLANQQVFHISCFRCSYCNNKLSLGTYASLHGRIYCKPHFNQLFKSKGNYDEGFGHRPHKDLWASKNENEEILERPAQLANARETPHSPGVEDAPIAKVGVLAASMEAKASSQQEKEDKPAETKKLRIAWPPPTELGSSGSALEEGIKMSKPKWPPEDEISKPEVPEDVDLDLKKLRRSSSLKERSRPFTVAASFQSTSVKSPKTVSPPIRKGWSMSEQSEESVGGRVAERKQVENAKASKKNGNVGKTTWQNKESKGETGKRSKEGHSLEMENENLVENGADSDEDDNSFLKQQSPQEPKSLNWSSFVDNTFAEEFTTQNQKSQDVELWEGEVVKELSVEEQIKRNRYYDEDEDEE
Experimental: as §1, §2

[7] = target: T5, TXN (UniProt P10599 2-105)
T5 construct: also called NP_003320.2
T5 sequence (looked up): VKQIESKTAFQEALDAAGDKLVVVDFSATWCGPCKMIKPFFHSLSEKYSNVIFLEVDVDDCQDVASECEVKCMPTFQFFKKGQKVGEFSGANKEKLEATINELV
Experimental: as §1, §2

[8] = target: RPS18 (UniProt P62269 2-152)
Experimental: as §1, §2

[9] = target: RPS23 (UniProt P62266 2-143)
Experimental: as §1, §2

[10] = target: RPS16 (UniProt P62249 2-146)
Experimental: as §1, §2

[11] = target: T6, DEFA3 (UniProt P59666 65-94, limits assumed)
T6 construct: also called NP_005208.1 (+1)
T6 sequence (P59666 65-94 limits assumed): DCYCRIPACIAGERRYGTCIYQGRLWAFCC
Experimental: as §1, §2

[12] = target: T7, SRSF1 (UniProt Q07955 2-248)
T7 construct: also called NP_008855.1
T7 sequence (Q07955 2-248 limits assumed): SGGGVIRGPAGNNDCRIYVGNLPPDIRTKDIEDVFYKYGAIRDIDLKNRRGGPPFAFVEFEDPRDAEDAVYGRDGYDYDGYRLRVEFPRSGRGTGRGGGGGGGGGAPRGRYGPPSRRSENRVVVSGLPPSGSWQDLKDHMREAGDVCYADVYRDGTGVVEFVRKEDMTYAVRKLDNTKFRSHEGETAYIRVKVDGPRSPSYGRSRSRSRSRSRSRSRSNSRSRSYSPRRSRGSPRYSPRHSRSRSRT
Experimental: as §1, §2

[13] = target: T8, TNKS1BP1 (UniProt Q9C0C2 1-1729)
T8 construct: also called NP_203754.2
T8 sequence (Q9C0C2 whole entry): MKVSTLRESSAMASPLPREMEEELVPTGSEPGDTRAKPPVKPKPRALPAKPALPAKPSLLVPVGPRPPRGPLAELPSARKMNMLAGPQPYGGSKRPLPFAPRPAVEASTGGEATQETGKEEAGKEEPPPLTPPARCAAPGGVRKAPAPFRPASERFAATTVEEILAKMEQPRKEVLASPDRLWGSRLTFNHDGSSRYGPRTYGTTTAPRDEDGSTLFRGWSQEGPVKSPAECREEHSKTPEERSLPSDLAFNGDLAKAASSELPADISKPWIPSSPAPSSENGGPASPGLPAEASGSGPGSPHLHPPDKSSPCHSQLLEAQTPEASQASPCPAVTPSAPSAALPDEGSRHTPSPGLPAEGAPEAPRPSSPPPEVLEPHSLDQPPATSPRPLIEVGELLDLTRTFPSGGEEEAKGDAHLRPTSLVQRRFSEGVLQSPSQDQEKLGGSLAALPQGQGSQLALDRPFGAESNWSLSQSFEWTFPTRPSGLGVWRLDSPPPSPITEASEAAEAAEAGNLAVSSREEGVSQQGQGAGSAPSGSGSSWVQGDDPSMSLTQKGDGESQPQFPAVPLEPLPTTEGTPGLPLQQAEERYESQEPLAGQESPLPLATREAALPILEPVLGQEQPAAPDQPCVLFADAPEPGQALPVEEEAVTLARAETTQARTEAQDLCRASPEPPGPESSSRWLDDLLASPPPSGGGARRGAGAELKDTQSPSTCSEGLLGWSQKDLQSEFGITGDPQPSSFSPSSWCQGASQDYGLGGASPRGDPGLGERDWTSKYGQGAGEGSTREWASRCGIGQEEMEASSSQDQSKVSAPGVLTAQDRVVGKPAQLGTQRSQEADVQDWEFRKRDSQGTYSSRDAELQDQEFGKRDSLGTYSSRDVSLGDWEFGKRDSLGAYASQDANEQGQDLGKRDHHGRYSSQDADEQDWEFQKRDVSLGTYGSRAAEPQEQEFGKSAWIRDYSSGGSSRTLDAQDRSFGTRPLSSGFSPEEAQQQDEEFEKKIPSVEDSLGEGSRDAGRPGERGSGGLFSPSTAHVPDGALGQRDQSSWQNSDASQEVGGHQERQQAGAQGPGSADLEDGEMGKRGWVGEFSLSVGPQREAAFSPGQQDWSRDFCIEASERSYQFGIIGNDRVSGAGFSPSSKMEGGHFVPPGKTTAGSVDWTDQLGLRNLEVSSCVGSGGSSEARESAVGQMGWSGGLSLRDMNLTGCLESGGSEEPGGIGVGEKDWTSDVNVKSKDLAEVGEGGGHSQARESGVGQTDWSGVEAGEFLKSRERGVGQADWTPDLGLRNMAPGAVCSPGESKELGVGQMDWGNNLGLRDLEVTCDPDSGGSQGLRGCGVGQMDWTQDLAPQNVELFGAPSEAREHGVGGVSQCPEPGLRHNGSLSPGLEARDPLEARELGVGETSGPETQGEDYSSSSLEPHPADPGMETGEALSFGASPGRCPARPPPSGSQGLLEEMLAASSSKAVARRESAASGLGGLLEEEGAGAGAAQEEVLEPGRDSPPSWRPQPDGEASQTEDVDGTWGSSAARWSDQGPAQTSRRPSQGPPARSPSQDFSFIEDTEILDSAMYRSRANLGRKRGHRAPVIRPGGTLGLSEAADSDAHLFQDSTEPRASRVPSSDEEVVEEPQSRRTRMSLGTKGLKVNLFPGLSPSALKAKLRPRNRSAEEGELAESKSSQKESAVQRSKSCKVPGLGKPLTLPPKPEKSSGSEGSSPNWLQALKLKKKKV
Experimental: as §1, §2

[14] = target: RPS13 (UniProt P62277 2-151)
Experimental: as §1, §2

[15] = target: RPS19 (UniProt P39019 2-145)
Experimental: as §1, §2

[16] = target: RPS8 (UniProt P62241 2-208)
Experimental: as §1, §2

[17] = target: T9, SRSF3 (UniProt P84103 1-164)
T9 construct: also called NP_003008.1
T9 sequence (looked up): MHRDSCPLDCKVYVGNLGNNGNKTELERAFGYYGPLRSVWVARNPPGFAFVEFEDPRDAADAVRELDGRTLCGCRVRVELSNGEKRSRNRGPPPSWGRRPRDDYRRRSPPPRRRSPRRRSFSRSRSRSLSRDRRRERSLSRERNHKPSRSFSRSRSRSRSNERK
Experimental: as §1, §2

T1 sequence (Q04637 41-1599 limits assumed): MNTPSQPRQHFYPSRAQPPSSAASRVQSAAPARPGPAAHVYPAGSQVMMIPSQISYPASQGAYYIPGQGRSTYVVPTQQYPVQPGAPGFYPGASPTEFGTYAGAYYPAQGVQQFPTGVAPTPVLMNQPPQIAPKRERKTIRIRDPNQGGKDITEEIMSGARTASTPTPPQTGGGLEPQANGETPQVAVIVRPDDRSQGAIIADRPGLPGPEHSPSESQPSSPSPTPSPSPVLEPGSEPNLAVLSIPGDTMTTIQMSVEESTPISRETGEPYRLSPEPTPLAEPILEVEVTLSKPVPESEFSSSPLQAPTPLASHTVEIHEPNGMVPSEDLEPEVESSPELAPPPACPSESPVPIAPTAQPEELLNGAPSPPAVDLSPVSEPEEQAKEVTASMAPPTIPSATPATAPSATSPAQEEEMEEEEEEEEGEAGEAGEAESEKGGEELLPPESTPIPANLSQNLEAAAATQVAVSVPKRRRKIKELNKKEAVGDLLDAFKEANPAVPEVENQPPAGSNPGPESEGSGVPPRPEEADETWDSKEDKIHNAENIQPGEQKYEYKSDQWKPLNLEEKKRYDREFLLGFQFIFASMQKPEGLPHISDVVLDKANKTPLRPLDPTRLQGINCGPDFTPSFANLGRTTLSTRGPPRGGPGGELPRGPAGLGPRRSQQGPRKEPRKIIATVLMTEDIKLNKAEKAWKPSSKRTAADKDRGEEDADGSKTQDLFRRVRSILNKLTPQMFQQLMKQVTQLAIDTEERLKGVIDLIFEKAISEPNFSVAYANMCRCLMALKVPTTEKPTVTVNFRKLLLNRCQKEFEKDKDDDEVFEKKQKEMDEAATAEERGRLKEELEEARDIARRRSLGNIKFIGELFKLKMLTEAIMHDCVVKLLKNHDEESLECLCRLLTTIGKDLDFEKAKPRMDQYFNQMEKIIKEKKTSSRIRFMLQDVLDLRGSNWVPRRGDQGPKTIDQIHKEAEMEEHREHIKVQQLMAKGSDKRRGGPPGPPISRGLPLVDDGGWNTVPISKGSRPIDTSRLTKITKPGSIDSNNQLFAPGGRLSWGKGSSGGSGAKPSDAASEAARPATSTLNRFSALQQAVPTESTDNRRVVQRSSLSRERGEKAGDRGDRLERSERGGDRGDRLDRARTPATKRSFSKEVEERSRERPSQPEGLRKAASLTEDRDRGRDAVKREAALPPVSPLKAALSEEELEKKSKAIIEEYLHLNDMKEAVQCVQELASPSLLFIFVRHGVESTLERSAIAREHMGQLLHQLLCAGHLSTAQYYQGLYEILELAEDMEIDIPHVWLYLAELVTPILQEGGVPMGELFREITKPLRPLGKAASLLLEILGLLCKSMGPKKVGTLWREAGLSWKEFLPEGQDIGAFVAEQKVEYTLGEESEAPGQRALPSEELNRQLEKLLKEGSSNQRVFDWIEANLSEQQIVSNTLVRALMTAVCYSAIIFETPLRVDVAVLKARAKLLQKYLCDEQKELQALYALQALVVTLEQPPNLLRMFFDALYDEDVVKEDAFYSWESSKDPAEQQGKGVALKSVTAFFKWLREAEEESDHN

co-IP mass spectrometry count [1]: 2 | co-IP mass spectrometry count [2]: 0 | co-IP mass spectrometry count [3]: 13 | co-IP mass spectrometry count [4]: 5 | co-IP mass spectrometry count [5]: 8 | co-IP mass spectrometry count [6]: 4 | co-IP mass spectrometry count [7]: 3 | co-IP mass spectrometry count [8]: 15 | co-IP mass spectrometry count [9]: 9 | co-IP mass spectrometry count [10]: 9 | co-IP mass spectrometry count [11]: 5 | co-IP mass spectrometry count [12]: 4 | co-IP mass spectrometry count [13]: 2 | co-IP mass spectrometry count [14]: 3 | co-IP mass spectrometry count [15]: 5 | co-IP mass spectrometry count [16]: 6 | co-IP mass spectrometry count [17]: 6
B1: N-terminal FLAG tagged B3GNT2 (enzyme, human, UniProt Q9NY97 1-397, looked up)
chain: MSVGRRRIKLLGILMMANVFIYFIMEVSKSSSQEKNGKGEVIIPKEKFWKISTPPEAYWNREQEKLNRQYNPILSMLTNQTGEAGRLSNISHLNYCEPDLRVTSVVTGFNNLPDRFKDFLLYLRCRNYSLLIDQPDKCAKKPFLLLAIKSLTPHFARRQAIRESWGQESNAGNQTVVRVFLLGQTPPEDNHPDLSDMLKFESEKHQDILMWNYRDTFFNLSLKEVLFLRWVSTSCPDTEFVFKGDDDVFVNTHHILNYLNSLSKTKAKDLFIGDVIHNAGPHRDKKLKYYIPEVVYSGLYPPYAGGGGFLYSGHLALRLYHITDQVHLYPIDDVYTGMCLQKLGLVPEKHKGFRTFDIEEKNKNNICSYVDLMLVHSRKPQEMIDIWSQLQSAHLKC
notes: Bait of the co-IP; pulled down with mouse anti-FLAG from cell lysate; also called N-FLAG B3GNT2; N-term FLAG; not shown: FLAG tag at the N-terminus
